Results as given in the Human Domainome abundance scans (Beltran et al. 2025).
± gives the uncertainty stated by the source.

B1: Serine/threonine-protein kinase LATS1, residues 98 to 141; numbered along this chain, O95835 (parent)
chain: TSEVNPQMLQDLQAAGFDEDMVIQALQKTNNRSIEAAIEFISKM

Variants of: B1
Test: abundance fitness (aPCA) (normalised: wild type 0, dead -1); higher = more abundant; growth selection in yeast, the domain comes from the species named
Settings: Homo sapiens

Q: For TSEVNPQMLQDLQAAKFDEDMVIQALQKTNNRSIEAAIEFISKM [G16K], which abundance fitness is on record?
A: -1.03 ± 0.2

Q: For TSEVNFQMLQDLQAAGFDEDMVIQALQKTNNRSIEAAIEFISKM [P6F], which abundance fitness is on record?
A: -0.115 ± 0.07

Q: Which abundance fitness does the source give for TSEVNEQMLQDLQAAGFDEDMVIQALQKTNNRSIEAAIEFISKM [P6E] here?
A: 0.07 ± 0.042

Q: With TSEVNPQMLQDLQAAGFDEIMVIQALQKTNNRSIEAAIEFISKM [D20I] as the variant, how does the abundance fitness read?
A: -0.384 ± 0.087

Q: Which abundance fitness does the source give for TSEVNPQMLQDLQAAGFDEWMVIQALQKTNNRSIEAAIEFISKM [D20W] here?
A: -0.268 ± 0.042

Q: Which abundance fitness does the source give for TSEVNPQMLQDLQAAGFDEGMVIQALQKTNNRSIEAAIEFISKM [D20G] here?
A: -0.081 ± 0.031

Q: With TSEVNPQMLQDLQAAGFDEDMVIQALQKTNNRSIEAAGEFISKM [I38G] as the variant, how does the abundance fitness read?
A: -0.169 ± 0.035

Q: With TSEVNPQMLQDLQAAGFDEDMVIQALQKTNNRSIEAAEEFISKM [I38E] as the variant, how does the abundance fitness read?
A: -0.007 ± 0.048

Q: With TSEVNPQMLQDLQAAGFDEDMVIQALQKTNNRRIEAAIEFISKM [S33R] as the variant, how does the abundance fitness read?
A: -0.907 ± 0.058

Q: With TSEVNPQMLQDLQAAGFDEDMVIQALQKTNNRPIEAAIEFISKM [S33P] as the variant, how does the abundance fitness read?
A: -0.627 ± 0.06

Q: With TSEVNPQMLQDLQAAGFDEDMVIQALQKTNNREIEAAIEFISKM [S33E] as the variant, how does the abundance fitness read?
A: -0.665 ± 0.086

Q: For TIEVNPQMLQDLQAAGFDEDMVIQALQKTNNRSIEAAIEFISKM [S2I], which abundance fitness is on record?
A: -0.035 ± 0.12

Q: With TSEVNPQMLQSLQAAGFDEDMVIQALQKTNNRSIEAAIEFISKM [D11S] as the variant, how does the abundance fitness read?
A: -0.021 ± 0.043

Q: Which abundance fitness does the source give for TSEVNPQMLQQLQAAGFDEDMVIQALQKTNNRSIEAAIEFISKM [D11Q] here?
A: 0.092 ± 0.04

Q: For TSEVNPQMLQMLQAAGFDEDMVIQALQKTNNRSIEAAIEFISKM [D11M], which abundance fitness is on record?
A: -0.154 ± 0.047

Q: With TSEVNPQMLQDLQAAGFDEDMVIQALQKTNNRSISAAIEFISKM [E35S] as the variant, how does the abundance fitness read?
A: -0.115 ± 0.042

Q: With TSEVNPQMLQDLQAAGFDEDMVIQALQKTNNRSILAAIEFISKM [E35L] as the variant, how does the abundance fitness read?
A: -0.541 ± 0.059

Q: For TSEVNPQMLQDLQAAGFDEDMVIQALQKTNNRSIDAAIEFISKM [E35D], which abundance fitness is on record?
A: 0.005 ± 0.054

Q: For TSEVNPQMLQDLQAAGFDEDMVIQALQKTNNRSIFAAIEFISKM [E35F], which abundance fitness is on record?
A: -0.468 ± 0.12

Q: Which abundance fitness does the source give for TSEVNPQMLQDKQAAGFDEDMVIQALQKTNNRSIEAAIEFISKM [L12K] here?
A: -0.658 ± 0.058

Q: With TSEVNPQMLQDGQAAGFDEDMVIQALQKTNNRSIEAAIEFISKM [L12G] as the variant, how does the abundance fitness read?
A: -0.57 ± 0.038

Q: Which abundance fitness does the source give for TSEVNPQMLQDEQAAGFDEDMVIQALQKTNNRSIEAAIEFISKM [L12E] here?
A: -0.477 ± 0.046

Q: For TSEVNPQMLQDLHAAGFDEDMVIQALQKTNNRSIEAAIEFISKM [Q13H], which abundance fitness is on record?
A: -0.42 ± 0.073

Q: Which abundance fitness does the source give for TSEVNPQMLQDLDAAGFDEDMVIQALQKTNNRSIEAAIEFISKM [Q13D] here?
A: -0.538 ± 0.11

Q: With TSEVNPQMLQDLSAAGFDEDMVIQALQKTNNRSIEAAIEFISKM [Q13S] as the variant, how does the abundance fitness read?
A: -0.127 ± 0.035

Q: Which abundance fitness does the source give for TSEVNPQMLQDLQAAGADEDMVIQALQKTNNRSIEAAIEFISKM [F17A] here?
A: -0.449 ± 0.045

Q: With TSEVNPQMLQDLQAAGKDEDMVIQALQKTNNRSIEAAIEFISKM [F17K] as the variant, how does the abundance fitness read?
A: -0.648 ± 0.11

Q: For TSEVNPQMLQDLQAAGWDEDMVIQALQKTNNRSIEAAIEFISKM [F17W], which abundance fitness is on record?
A: -0.198 ± 0.048

Q: Which abundance fitness does the source give for TSEVNPQMLQDLQAAGFDEDMVIQALQKTNNRSIEAAIEQISKM [F40Q] here?
A: -0.068 ± 0.046

Q: For TSEVNPQMLQDLQAAGFDEDMVIQALQKTNNRSIEAAIEVISKM [F40V], which abundance fitness is on record?
A: -0.097 ± 0.036

Q: Which abundance fitness does the source give for TSEVNPQMLQDLQAAGFDEDMVIQALGKTNNRSIEAAIEFISKM [Q27G] here?
A: -0.292 ± 0.031

Q: With TSEVNPQMLQDLQAAGFDEDMVIQALQKTNNRSIEAAIEFISKC [M44C] as the variant, how does the abundance fitness read?
A: -0.037 ± 0.051

Q: For TSEVNPQMLQDLQAAGFDEDMVIQALQKTNNRSIEAAIEFISKE [M44E], which abundance fitness is on record?
A: 0.052 ± 0.056

Q: For TSEVNPQMLQDLQAAGFDEDMVIQALQKTNNRSIEAAIEFISKW [M44W], which abundance fitness is on record?
A: -0.232 ± 0.053

Q: For TSEVNPQMLQDLQAAGFDEDMVIQALQKTNNRSIEAAIEFISKG [M44G], which abundance fitness is on record?
A: -0.063 ± 0.043

Q: Which abundance fitness does the source give for TSEVNPQMLQDLQAAGFDEDMVIQALQKTNTRSIEAAIEFISKM [N31T] here?
A: -0.645 ± 0.069

Q: For TSEVNPQMLQDLQAAGFDEDMVIQALQKTNRRSIEAAIEFISKM [N31R], which abundance fitness is on record?
A: -0.845 ± 0.046

Q: Which abundance fitness does the source give for TSEVNPQMLQDLQAAGFDEDMVIQALQKTNKRSIEAAIEFISKM [N31K] here?
A: -0.699 ± 0.12

Q: Which abundance fitness does the source give for TSEVNPQRLQDLQAAGFDEDMVIQALQKTNNRSIEAAIEFISKM [M8R] here?
A: -0.597 ± 0.043

Q: Which abundance fitness does the source give for TSEVNPQYLQDLQAAGFDEDMVIQALQKTNNRSIEAAIEFISKM [M8Y] here?
A: -0.151 ± 0.044

Q: With TSEVNPQWLQDLQAAGFDEDMVIQALQKTNNRSIEAAIEFISKM [M8W] as the variant, how does the abundance fitness read?
A: -0.208 ± 0.056

Q: With TSEVNPQMLCDLQAAGFDEDMVIQALQKTNNRSIEAAIEFISKM [Q10C] as the variant, how does the abundance fitness read?
A: -0.225 ± 0.053

Q: For TSEWNPQMLQDLQAAGFDEDMVIQALQKTNNRSIEAAIEFISKM [V4W], which abundance fitness is on record?
A: -0.561 ± 0.067

Q: With TSEMNPQMLQDLQAAGFDEDMVIQALQKTNNRSIEAAIEFISKM [V4M] as the variant, how does the abundance fitness read?
A: -0.453 ± 0.054

Q: For TSEVNPQMLQDLQAAGFDEDDVIQALQKTNNRSIEAAIEFISKM [M21D], which abundance fitness is on record?
A: 0.023 ± 0.05

Q: With TSEVNPQMLQDLQAAGFDEDQVIQALQKTNNRSIEAAIEFISKM [M21Q] as the variant, how does the abundance fitness read?
A: 0.077 ± 0.053

Q: With TSEVNPQMLQDLQWAGFDEDMVIQALQKTNNRSIEAAIEFISKM [A14W] as the variant, how does the abundance fitness read?
A: -0.706 ± 0.071

Q: Which abundance fitness does the source give for TSEVNPQMLQDLQGAGFDEDMVIQALQKTNNRSIEAAIEFISKM [A14G] here?
A: -0.19 ± 0.032

Q: With TSEVNPQMLQDLQAAGFDTDMVIQALQKTNNRSIEAAIEFISKM [E19T] as the variant, how does the abundance fitness read?
A: 0.046 ± 0.042

Q: With TSEVNPQMLQDLQAAGFDEDMVIQALQKTNNESIEAAIEFISKM [R32E] as the variant, how does the abundance fitness read?
A: 0.095 ± 0.042

Q: For TSEVNPQMLQDLQAAGFDEDMVIQALQKTNNVSIEAAIEFISKM [R32V], which abundance fitness is on record?
A: 0.017 ± 0.036

Q: For TSEVNPQMLQDLQAAGFDEDMVIQALQKTNNYSIEAAIEFISKM [R32Y], which abundance fitness is on record?
A: -0.222 ± 0.18

Q: Which abundance fitness does the source give for TSEVNPQMLQDLQAAGFDEDMVIQALQKTNNPSIEAAIEFISKM [R32P] here?
A: -0.434 ± 0.043

Q: Which abundance fitness does the source give for TSEVNPQMLQDLQAAGFDEDMVIQAEQKTNNRSIEAAIEFISKM [L26E] here?
A: -0.263 ± 0.041

Q: For TSEVNPQMLQDLQAAGFDEDMVIQAWQKTNNRSIEAAIEFISKM [L26W], which abundance fitness is on record?
A: -0.683 ± 0.045

Q: With TSEVNPQMLQDLQAAGFDEDMVIQAAQKTNNRSIEAAIEFISKM [L26A] as the variant, how does the abundance fitness read?
A: -0.523 ± 0.037

Q: With TSEVNPQMLQDLQAAGFDEDMVIQAKQKTNNRSIEAAIEFISKM [L26K] as the variant, how does the abundance fitness read?
A: -0.424 ± 0.069

Q: For TSEVNPQMLQDLQAAGFDEDMVIQAGQKTNNRSIEAAIEFISKM [L26G], which abundance fitness is on record?
A: -0.358 ± 0.032
